Read-outs that look alike come from different tables or passages of the source.

Common to all, as to assay: cell-based or functional assay
Assay [1] has as its target human GIP receptor (human) (UniProt P48546).
Assay [2] has as its target human glucagon-like peptide 1 receptor (human) (UniProt P43220).
The target in assay [3] is human GIP receptor (human) (UniProt P48546). The source holds these as a separate data set.
Assay [4] has as its target human glucagon receptor (human) (UniProt P47871).
For assay [5], the target named is human glucagon-like peptide 1 receptor (human) (UniProt P43220). The source holds these as a separate data set.
Sequence of human glucagon-like peptide 1 receptor (human) (P43220 24-463): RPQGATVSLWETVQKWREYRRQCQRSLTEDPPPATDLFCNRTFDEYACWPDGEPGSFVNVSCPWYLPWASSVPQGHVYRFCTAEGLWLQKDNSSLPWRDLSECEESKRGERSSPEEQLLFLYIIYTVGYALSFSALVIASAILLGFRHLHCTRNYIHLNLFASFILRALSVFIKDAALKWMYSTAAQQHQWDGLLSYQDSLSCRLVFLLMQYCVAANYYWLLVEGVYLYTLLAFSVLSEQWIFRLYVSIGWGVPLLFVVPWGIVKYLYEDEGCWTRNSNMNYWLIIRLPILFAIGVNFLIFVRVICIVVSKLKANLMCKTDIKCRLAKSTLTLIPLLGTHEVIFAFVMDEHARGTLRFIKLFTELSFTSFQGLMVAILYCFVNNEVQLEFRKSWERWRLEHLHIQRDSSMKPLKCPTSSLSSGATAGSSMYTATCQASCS

Sequence of human glucagon receptor (human) (P47871 26-477): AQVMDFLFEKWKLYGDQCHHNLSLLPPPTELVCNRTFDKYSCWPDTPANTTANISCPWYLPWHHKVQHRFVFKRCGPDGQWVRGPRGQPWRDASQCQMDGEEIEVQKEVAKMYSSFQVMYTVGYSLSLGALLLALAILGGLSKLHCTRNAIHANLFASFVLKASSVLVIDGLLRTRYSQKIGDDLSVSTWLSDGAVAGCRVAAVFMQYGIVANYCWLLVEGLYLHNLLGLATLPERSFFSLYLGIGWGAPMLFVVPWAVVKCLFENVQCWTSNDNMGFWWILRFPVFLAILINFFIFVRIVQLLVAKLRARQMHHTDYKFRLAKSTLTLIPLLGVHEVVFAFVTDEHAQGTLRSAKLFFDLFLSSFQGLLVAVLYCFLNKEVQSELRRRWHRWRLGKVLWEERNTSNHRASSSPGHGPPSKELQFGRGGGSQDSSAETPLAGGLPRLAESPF

B1: Compound 15 (peptide)
peptide: YXQGTFTSDYSIYLEKKAAHDFVEWLLSA
HELM: PEPTIDE1{Y.[Aib].Q.G.T.F.T.S.D.Y.S.I.Y.L.E.K.K.A.A.H.D.F.V.E.W.L.L.S.A.[am]}$$$$V2.0
SMILES: CC[C@H](C)[C@H](NC(=O)[C@H](CO)NC(=O)[C@H](Cc1ccc(O)cc1)NC(=O)[C@H](CC(=O)O)NC(=O)[C@H](CO)NC(=O)[C@@H](NC(=O)[C@H](Cc1ccccc1)NC(=O)[C@@H](NC(=O)CNC(=O)[C@H](CCC(N)=O)NC(=O)C(C)(C)NC(=O)[C@@H](N)Cc1ccc(O)cc1)[C@@H](C)O)[C@@H](C)O)C(=O)N[C@@H](Cc1ccc(O)cc1)C(=O)N[C@@H](CC(C)C)C(=O)N[C@@H](CCC(=O)O)C(=O)N[C@@H](CCCCN)C(=O)N[C@@H](CCCCN)C(=O)N[C@@H](C)C(=O)N[C@@H](C)C(=O)N[C@@H](Cc1c[nH]cn1)C(=O)N[C@@H](CC(=O)O)C(=O)N[C@@H](Cc1ccccc1)C(=O)N[C@H](C(=O)N[C@@H](CCC(=O)O)C(=O)N[C@@H](Cc1c[nH]c2ccccc12)C(=O)N[C@@H](CC(C)C)C(=O)N[C@@H](CC(C)C)C(=O)N[C@@H](CO)C(=O)N[C@@H](C)C(N)=O)C(C)C
Consider B1, for which the EC50 (cAMP induction) in assay [1] stood at 0.025 nM; in assay [2] it was 0.016 nM; in assay [3], 0.014 nM; in assay [4] it was 0.058 nM; in assay [5] it was 0.058 nM.

Values taken from patent US10131702B2, “Glucagon-GLP-1-GIP triple agonist compounds” (priority 2013, dated 2018).
